Article PMC8585947, “Structure of Escherichia coli cytochrome bd-II type oxidase with bound aurachin D” (Nature Communications, 2021)

T1: AppC, subunit of Escherichia coli cytochrome bd-II oxidase (E. coli, UniProt P26459 1-514)
T1 construct: AppC, cytochrome bd-II oxidase subunit, E. coli; predicted molecular mass 58.1 kDa; gene amplified from genomic DNA of strain BW25113; also called AppChis
T1 sequence: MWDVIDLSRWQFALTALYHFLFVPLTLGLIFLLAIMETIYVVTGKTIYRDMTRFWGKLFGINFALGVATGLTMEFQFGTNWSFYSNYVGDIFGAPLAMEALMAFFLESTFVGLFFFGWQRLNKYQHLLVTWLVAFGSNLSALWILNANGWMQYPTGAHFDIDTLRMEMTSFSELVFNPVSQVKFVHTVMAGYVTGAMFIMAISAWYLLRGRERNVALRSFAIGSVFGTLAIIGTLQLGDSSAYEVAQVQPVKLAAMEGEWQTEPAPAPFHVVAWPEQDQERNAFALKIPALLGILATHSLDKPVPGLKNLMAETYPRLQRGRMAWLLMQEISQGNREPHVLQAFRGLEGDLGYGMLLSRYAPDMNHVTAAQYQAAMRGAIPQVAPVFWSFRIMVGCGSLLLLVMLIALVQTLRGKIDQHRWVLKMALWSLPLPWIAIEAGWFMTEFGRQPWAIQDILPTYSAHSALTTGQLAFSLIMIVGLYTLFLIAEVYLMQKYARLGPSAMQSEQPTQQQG

B1: AppB, subunit of Escherichia coli cytochrome bd-II oxidase (natural protein)
chain: not shown
notes: AppB, cytochrome bd-II oxidase subunit, E. coli; predicted molecular mass 42.4 kDa; gene amplified from genomic DNA of strain BW25113
B2: AppX, single helix subunit of Escherichia coli cytochrome bd-II oxidase (natural protein, E. coli)
chain: MWYLLWFVGILLMCSLSTLVLVWLDPRLKS
notes: AppX, cytochrome bd-II oxidase subunit, E. coli; length of 30 amino acid residues; predicted molecular mass 3.6 kDa; gene amplified from genomic DNA of strain BW25113

Key:
[1] = target: T1, AppC, subunit of Escherichia coli …; assay: cryo-EM structure; bd-II in amphipol A8-35, 5.6 mg/mL, incubated with aurachin D; 20 mM MOPS, 20 mM NaCl, pH 7.0; C2 symmetry imposed; 3.0 Å; details: both partners purified
[2] = target: the molecule itself; assay: as above

| Binder | binding result [1] | binding result [2] |
| --- | --- | --- |
| B1 | binds |  |
| B2 | binds | binds |
